System: C57BL/6J mice
Settings: mouse, in vivo

B1: OVA-PEG: OVA conjugated to PEG via urethane linkage (conjugate, UniProt P01012 2-386, looked up)
Ovalbumin: GSIGAASMEFCFDVFKELKVHHANENIFYCPIAIMSALAMVYLGAKDSTRTQINKVVRFDKLPGFGDSIEAQCGTSVNVHSSLRDILNQITKPNDVYSFSLASRLYAEERYPILPEYLQCVKELYRGGLEPINFQTAADQARELINSWVESQTNGIIRNVLQPSSVDSQTAMVLVNAIVFKGLWEKAFKDEDTQAMPFRVTEQESKPVQMMYQIGLFRVASMASEKMKILELPFASGTMSMLVLLPDEVSGLEQLESIINFEKLTEWTSSNVMEERKIKVYLPRMKMEEKYNLTSVLMAMGITDVFSSSANLSGISSAESLKISQAVHAAHAEINEAGREVVGSAEAGVDAASVSEEFRADHPFLFCIKHIATNAVLFFGRCVSP
modifications: PEG 10K conjugate
Which results are given for B1?
PEG-specific IgM titer relative to Ex-PEG: ~ 60 fold; anti-OVA IgG titer: lower titers of anti-OVA IgG than unmodified OVA; magnification of anti-OVA and anti-PEG responses by CFA/IFA emulsions: ~ 2 fold

— article PMC10918641 (Biomaterials, 2023)
